This data set can be described thus: yeast display, Sf9 membrane polyspecificity reagent, FACS + sequencing; frameworks hold sequencing errors. Summed up:
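Galactose-induced (36–48 hours) yeast carrying a synthetic nanobody display library were exposed to 10% biotinylated, detergent-solubilized Sf9 membrane reagent at 4 °C for 1 hour. FACS followed streptavidin microbead enrichment, using low and high (top ~1%) gates for expression (anti-HA) and reagent binding (streptavidin). Colony PCR, MiSeq 2 × 250 sequencing and CDR-length filtering followed. Labels for polyreactivity reflect the gate of origin.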
Consider “QVQLVESGGRLVQAGGSLRLSCAASGRTFVSYAMGWYRQAPGKERELVATITGSTGGTYYADSVKGRFTISRDNAKNTVYLQMNSLKPEDTAVYYCNKDYYYNPGNVASGYDYWGHGTQVTVSS”, for which the “polyreactivity (PSR sort gate)” value is listed as “low polyreactivity”. The entry for “QVQLEESGGGLVQAGGRLRLSCAASGSTFDPNTMGWYRQAPGKERELVATITSVDSTNYADSVKGRFTISRDNAKNTVYLQMNSLKPEDTAVYYCNAAYGGVFFYAYDYWGQGTQVTVSS” is “low polyreactivity”. “QVQLVESGGGLVQAGGSLRLSCAASGSTLESYAMGWYRQAAGKERELVAAISKSGGRTYYADSVKGRFTISRDNAKNTVYLQMNSLKPEDTAVYYCAADSCTHLTYYWGQGTQVTVSS”: the “polyreactivity (PSR sort gate)” value is on record as “high polyreactivity”. With “QVQLVESGGGLVQAGGSLRLSCAASGFTFFQYAKGWYRQAPGKERELVAAISARGGRTYYADSVKGRFTISRDNAKNTVYLQMNSLKPEDTAVYYCAKRTRTIQGHYDYWGQGTQVTVSS”, the “polyreactivity (PSR sort gate)” value is recorded as “high polyreactivity”. To “QVQLVESGGGLVQAGGSLRLSCAASGRTYVDYAMGWYRQAPGKEREFDAAITWSGGSTYYADSVKGRFTISRDYAKNTVYLQMTSLKPEDTEVYYCNRDTNVGVLNYKFYDGPERDYWGQGTQVTVSS” belongs “low polyreactivity”; to “QVQLVESGGGLVQAGGSLRLSCAASGFNFRKYAMGWYRQAPGKERELVASITSGGGSTYYADSVKGRFTISRDNAKNTVYLQMNSLKPEDTAVYYCAAVAYTGGPRKLGFNYWGQGTQVTVSS”, “high polyreactivity”; to “QVQLVESGGGLVQAGGSLRLSCAASGRTFQFYTMGWYRQAPGKERELVAVITVSSASTFYADSVKGRFTISRDNAKNTVYLQMNSLKPEDTAVYYCAAGLVLNVGMDSWGQGTQVTVSS”, “low polyreactivity”. The entry for “QVQLVESGGGLVQAGGSLRLSCAASGRTLGGYAMGWYRQAPGKERELVASITSTSSTYADSVKGRFTISRDNAKNTVYLQMNSLKPEDTAVYYCAADYFLTSYGWRIHYTYYYWGQGTQVTVSS” is “low polyreactivity”; for “QVQLVESGAGLVQAGGSLRLSCAASGSTFYFNGMGWYRQAPGKERELVAAISSTGNTYYADSVKGRFTISRDNAKNTVYLQMNSLKPEDTAVNDCLAGSSEAGYYWGHGTQVTVSS” it is “high polyreactivity”. To “QVQLVESGGGLVQAGGSLLLSCAASGRTLGKYAMGWYRQAPGKERELVAAISSGGGSTYYSDSVKGRFTISRDNAKNTVYLLMNSLKPEDTAVYYCAADSVSRYNGYDYWGQGTQVTVSS” belongs “high polyreactivity”; to “QVQLVESGGGILQAGGSLRLSCAASGFTFLGYVMGWYRQSPGKEREIVADITESGGRTYYADSVKGRFTISRDNAKNTVFLQMNSLKPEDTAVYYCAAELSYWGYYYSFDYWGHGTQVTVSS”, “low polyreactivity”. In the case of “QVQLVESGGGLVQAGGSLRLSCAASGRTFSYYAKGWYRQAPGKESELVSAIRVSGGITYYADSVKGRFTISRDNAKNTVYLQMNTLKPEDTAVYYCNAGVDFIGGRYLTYVYWGQGTQVTVSW”, the “polyreactivity (PSR sort gate)” value is listed as “low polyreactivity”. The entry for “QVQLVESGGGLVQAGGSLRLSCAASGSIFSGNAMGWYRQAPGKERELVASINRSGGSTYYADSVKGRFTISRDNAKNTVYLLMNSLKPEDTAVYYCAARRVWLAGYDSWGQGTQVTVSS” is “low polyreactivity”; for “QVQLVESGGGLVQAGGSLRLSCAGSGATYERYAMGWSRPAPGKERALVAASNKRGGNTYYADSVKGRFTISRDNAKKTVYLQMNSLKPEDTAVYYCAADHLDRTEFPYYYWGQGTQVTVSS” it is “high polyreactivity”. The entry for “QVQLVESGGGLVQAGGILRLSSAASGRTILSYAMGWYRQAPGKERELVAAITRSGGGTFYADSVKGRFTLSRDNAKNTVYVQMNSLKPEDTAVYYCAARYYNYASPTRFKYNYWGQGTQVTVSS” is “high polyreactivity”. On to “QVQLVESGGGLVQAGGSLRLSCAASGFTFPFYTMGWYRQAPGKERELVAAITRSGASTFYADSVKGRFTISRDNAKNTVYLQMNSLKPEDTAVYYCAARRGYAPYEYWGQGTQVTVSS”, for which the “polyreactivity (PSR sort gate)” value is given as “high polyreactivity”. Turning to “QVQLVESGAGLVHAGGSLRLSCAASGLIYVNAMGWYRQAPGKERDFVAAITYSTGSTYYADSVKGRYTISRDNAKNTVYLQMNSLKPEDSAVYYCATDEHSSGRTPYDYWVQGTQVTVSS”, the “polyreactivity (PSR sort gate)” value is “low polyreactivity”. The entry for “QVQLEESGLALVQAGGSLRLSCADSGRIFRKKAMGWYRQAPGKERELVAAISSSGSTYYADSVKGRFKISRDNAKNTVYLQMNSLKPVDTAVYYCAARYQYGNRRGRDYWGQGTQVTVSS” is “high polyreactivity”; for “QVQLIESGGVLVQAGGSLRLSCAASGSTFTINVMGWYRQAPGKERELVAAINGGGRTNYADSVKGRFTISRDNAKNTVYLQINSLKPEDTAVYYCAADGLSNVRQMDYWGQGTQVTVSS” it is “low polyreactivity”. On to “HVQLVESGGGLVQAGGSLRLSCAASGRTFRLYAMGRYRQATGKEMELVARIRWRGGTTYFADSVKGRFTISRDNAKNTVYLQMNRLKPEDTAVYYCAARAYPTWRTYYYCGQGTQVTVSS”, for which the “polyreactivity (PSR sort gate)” value was “high polyreactivity”.

In the case of “QVHLVESGGGLVQAGGSLRLSCAASGSIFGRYAMGWYRQAPGKERELVANITSGDSTNYADSVKGRFTISRDNAKNTVYLQMNSLKPEDTAVYYCAAYRIGQYDYWGQGTQVTVSS”, the “polyreactivity (PSR sort gate)” value is “high polyreactivity”.

In the case of “QVQLVESGGGLVQAGGSLRLSCAASGSTFNDYAMGWYRQAPGKERELVAGITWRGTSTYYADSVKGRFTISRDNAKNTVYLQRNSLKPEDTAVYYCAADVYYLLWLWMDYWGQGTQVTVSS”, the “polyreactivity (PSR sort gate)” value is recorded as “low polyreactivity”. Take “QVQLVESGGGLVQAGGSLRLSCAASGSTFIGNAMGRYRQAPGKERELVAAITRSGGSTFYADSVKGRFTISRDYAKNTVYLQMNSLKPEDTAVYYCAARTRRGLARYDYWGQGTQVTVSS”: the “polyreactivity (PSR sort gate)” value is reported as “high polyreactivity”. To “QVQLVESGGGLVQAGGSLRLSCAPSGIIFIRYAMGWYRQAPGKERELVAAISWRGGSTYYADSVKGRFTISRDNAKNTVYLQMNSLKPEDTAVYYCAAGYFSYRRYDYWGQGTQVTVSS” belongs “high polyreactivity”; to “QVQLVESGGGLVQAGGSLRLSCAASGSTFAYYAMVWYRQAPGKERELVAAISTIAGRTYYADSVKGRFTISRDNAKNTVYLQMNSLKPEDTAVYYCAVQFLYVVTLYSDYDYWGQGTQVTVSS”, “high polyreactivity”. For the sequence “QVQLVESGGGLVQAGGSLRLSCAASGSTFSNNAMGWYRQAPGKERELVATISQSGGSTYYADSVKGRFTISRDNAKNTVYLQMNSLKPEDTAVYYCNAESYLTGWWYDYWGQGTQVTVSS”, the “polyreactivity (PSR sort gate)” value is given as “high polyreactivity”. The entry for “QVQLVESGGGLVQAGGSLRLSCAASGIIFCRYAMGWYRQAPGKERELVATITWRGGSTYYADSVKGRFTISRDNAKNTVYLQMNSLKPEDTAVYYCAADTRQSRSFRARDYWGQGTQVTVSS” is “low polyreactivity”. Regarding “QVQLVDSAGGLVQAGGSLRLSCDDSGRTFWYYTMGWYRQAPGKEREFLAAIRGSGTSTYYADSVKARYTISRDNAKNTVYFQMNSLKPEDTADYYCAAESPVYHLVTYDYWGQGTQVTVSS”, the “polyreactivity (PSR sort gate)” value was “high polyreactivity”. The entry for “QVQLVESGGGLVQAGGSLRLSCAASGSTFGLNTMGWYRQAPGKERELVAGITWSGGTTYYADSVKGRFTISRDNAKNTVYLQMNSLKPEDTAVSYCAAAVSDHYWYSRAYYYWGQGTQVTVSS” is “high polyreactivity”. For the sequence “QVQLVESGGGLVQAGGSLRLSCAASGSTFGDNAMGWYRQAPGKEREFVAAITTSGTSTYYADSVKGRFTISRDNAKNTVYVQMNSLKPEDTAVYYCAAYSRAAAGFYSSRRDYYWGQGTQVTVSS”, the “polyreactivity (PSR sort gate)” value was “low polyreactivity”. To “QVQLVESGGGLVQAGGSLRLSCAASGGIFNYYAMGWYRQAPGKERELVAAISASGGSTYYADSVKGRFTISRDNAKNTVYLQMNSLKQEDTAVYYCAAKYPQKTPVNSYGNSFYYWGQGTQVTVSS” belongs “low polyreactivity”; to “QVQLVESGRGLVQAGGSLRLSCASSGRIFRYYDMGWYRQAPGKERDFVAAITRSGAITYYADSVKGRFTISRDNAKNTVYLQMNSLKPEDTAVYYCNADFQDRTYDYDYWGQGTQVTVSS”, “low polyreactivity”. Consider “QVQLVESGGALVQAGGRLRLSCAASVYIQHKYAMGRYRQAPGKERDLVATISGGGGSTYYADSVKGRFTISRDNAKNTVYLQMNSLKPEDTSVYYCAKEYPWLPRSYEYWGQGTQVTVSS”, for which the “polyreactivity (PSR sort gate)” value is “low polyreactivity”. Take “QVQLVESGGGLVQAGGSLRLSCAASGSTFCDYTMGVYRQAPGKERELLAAISRRGGITYYADSVKGRFTISRDNAKNTVYLQMNSLKPEDTAVYYCNKVYNPKSYIQYDYWGQGTQVTVSS”: the “polyreactivity (PSR sort gate)” value is “high polyreactivity”.

“QVQLVESGGGLVQAGGSLRLSCAASGRIFQRYTMGWYRQAPGKEREFVAAITYSGGSTHYADSVKGRFTISRDNAKNTVYLQMNSLKPEDTAVYYCIADRYYGRGYGYWGQGTQVTVSS”: the “polyreactivity (PSR sort gate)” value is “low polyreactivity”. To “QVQLVESGGGLVQAGGSLRLSCAASGSTFGRKAMAWYRQAPGKEMELVAVISKSGGSTYYADTVKGRFTISRDNAKNTVYLQMNSLKPEDTAVYYCAASLKYRRRMGYWGQGTQVTVSS” belongs “high polyreactivity”; to “QVQLVESGGGLVQAGGSLRLTCAASGSTFWFYAMGWYRQAPGKERELVATITIGGRTYADSVKGRYTISRDNAKNTVYLQMNSLKPEDTAVYYCAARRVRLEYVYGRYDYWGQGTQVTVSS”, “low polyreactivity”; to “QVQVVESGGGLVQAGGSLRLSCAASGRTFTRYAMGWYRQAPGKERELVATITRGGSTNYADSVKGRFTISRDNAKNTVYLQMNSLKPEDTAVYYCAAGYFIRTRSRYRYDYWGQGTQVTVSS”, “high polyreactivity”. For “QVQLVESGGGLVQAGGSLRLSCAASGFIFKYNAMGWYRQAPGKERELVAAISRSGGRTYYADSVKGRFTISRDNAKNTVSLQMNSLKPEDTAVYYCAARVGVSGFEYDYWGQGTQVTVSS”, the “polyreactivity (PSR sort gate)” value is recorded as “high polyreactivity”. To “QVQLVESGGGLVQAGGSLRLNCAASGSTLARYAMGWYRQAPGKERELVAAITWSGVSTYYADSVKGRFTISRDNAKNTVYLQMISLKPEDTAVYYCNARIFRSPNPYDYWGEGTQVTVSS” belongs “high polyreactivity”. The entry for “QVQLVESGGGLVQAGGSLRLSCAASGSIFTGYAMGWYRQARGKESELVAAIDDSGDSTYYADSVKVRFTISRDNATNTVYLQMNSLKPEDTAVYYSKAEYRVNKEYDYWGQGTQVTVSS” is “low polyreactivity”.

Values taken from the nanobody polyreactivity screen of Harvey et al. (2022).
